Test results as given in paper PMC5447866 (Oncogene, 2016).

Target: His6-tagged UBR5 recombinant protein (UniProt O95071 1-2799)
Assay: pull-down

His6-tagged UBR5 recombinant protein, sequence (O95071 whole entry): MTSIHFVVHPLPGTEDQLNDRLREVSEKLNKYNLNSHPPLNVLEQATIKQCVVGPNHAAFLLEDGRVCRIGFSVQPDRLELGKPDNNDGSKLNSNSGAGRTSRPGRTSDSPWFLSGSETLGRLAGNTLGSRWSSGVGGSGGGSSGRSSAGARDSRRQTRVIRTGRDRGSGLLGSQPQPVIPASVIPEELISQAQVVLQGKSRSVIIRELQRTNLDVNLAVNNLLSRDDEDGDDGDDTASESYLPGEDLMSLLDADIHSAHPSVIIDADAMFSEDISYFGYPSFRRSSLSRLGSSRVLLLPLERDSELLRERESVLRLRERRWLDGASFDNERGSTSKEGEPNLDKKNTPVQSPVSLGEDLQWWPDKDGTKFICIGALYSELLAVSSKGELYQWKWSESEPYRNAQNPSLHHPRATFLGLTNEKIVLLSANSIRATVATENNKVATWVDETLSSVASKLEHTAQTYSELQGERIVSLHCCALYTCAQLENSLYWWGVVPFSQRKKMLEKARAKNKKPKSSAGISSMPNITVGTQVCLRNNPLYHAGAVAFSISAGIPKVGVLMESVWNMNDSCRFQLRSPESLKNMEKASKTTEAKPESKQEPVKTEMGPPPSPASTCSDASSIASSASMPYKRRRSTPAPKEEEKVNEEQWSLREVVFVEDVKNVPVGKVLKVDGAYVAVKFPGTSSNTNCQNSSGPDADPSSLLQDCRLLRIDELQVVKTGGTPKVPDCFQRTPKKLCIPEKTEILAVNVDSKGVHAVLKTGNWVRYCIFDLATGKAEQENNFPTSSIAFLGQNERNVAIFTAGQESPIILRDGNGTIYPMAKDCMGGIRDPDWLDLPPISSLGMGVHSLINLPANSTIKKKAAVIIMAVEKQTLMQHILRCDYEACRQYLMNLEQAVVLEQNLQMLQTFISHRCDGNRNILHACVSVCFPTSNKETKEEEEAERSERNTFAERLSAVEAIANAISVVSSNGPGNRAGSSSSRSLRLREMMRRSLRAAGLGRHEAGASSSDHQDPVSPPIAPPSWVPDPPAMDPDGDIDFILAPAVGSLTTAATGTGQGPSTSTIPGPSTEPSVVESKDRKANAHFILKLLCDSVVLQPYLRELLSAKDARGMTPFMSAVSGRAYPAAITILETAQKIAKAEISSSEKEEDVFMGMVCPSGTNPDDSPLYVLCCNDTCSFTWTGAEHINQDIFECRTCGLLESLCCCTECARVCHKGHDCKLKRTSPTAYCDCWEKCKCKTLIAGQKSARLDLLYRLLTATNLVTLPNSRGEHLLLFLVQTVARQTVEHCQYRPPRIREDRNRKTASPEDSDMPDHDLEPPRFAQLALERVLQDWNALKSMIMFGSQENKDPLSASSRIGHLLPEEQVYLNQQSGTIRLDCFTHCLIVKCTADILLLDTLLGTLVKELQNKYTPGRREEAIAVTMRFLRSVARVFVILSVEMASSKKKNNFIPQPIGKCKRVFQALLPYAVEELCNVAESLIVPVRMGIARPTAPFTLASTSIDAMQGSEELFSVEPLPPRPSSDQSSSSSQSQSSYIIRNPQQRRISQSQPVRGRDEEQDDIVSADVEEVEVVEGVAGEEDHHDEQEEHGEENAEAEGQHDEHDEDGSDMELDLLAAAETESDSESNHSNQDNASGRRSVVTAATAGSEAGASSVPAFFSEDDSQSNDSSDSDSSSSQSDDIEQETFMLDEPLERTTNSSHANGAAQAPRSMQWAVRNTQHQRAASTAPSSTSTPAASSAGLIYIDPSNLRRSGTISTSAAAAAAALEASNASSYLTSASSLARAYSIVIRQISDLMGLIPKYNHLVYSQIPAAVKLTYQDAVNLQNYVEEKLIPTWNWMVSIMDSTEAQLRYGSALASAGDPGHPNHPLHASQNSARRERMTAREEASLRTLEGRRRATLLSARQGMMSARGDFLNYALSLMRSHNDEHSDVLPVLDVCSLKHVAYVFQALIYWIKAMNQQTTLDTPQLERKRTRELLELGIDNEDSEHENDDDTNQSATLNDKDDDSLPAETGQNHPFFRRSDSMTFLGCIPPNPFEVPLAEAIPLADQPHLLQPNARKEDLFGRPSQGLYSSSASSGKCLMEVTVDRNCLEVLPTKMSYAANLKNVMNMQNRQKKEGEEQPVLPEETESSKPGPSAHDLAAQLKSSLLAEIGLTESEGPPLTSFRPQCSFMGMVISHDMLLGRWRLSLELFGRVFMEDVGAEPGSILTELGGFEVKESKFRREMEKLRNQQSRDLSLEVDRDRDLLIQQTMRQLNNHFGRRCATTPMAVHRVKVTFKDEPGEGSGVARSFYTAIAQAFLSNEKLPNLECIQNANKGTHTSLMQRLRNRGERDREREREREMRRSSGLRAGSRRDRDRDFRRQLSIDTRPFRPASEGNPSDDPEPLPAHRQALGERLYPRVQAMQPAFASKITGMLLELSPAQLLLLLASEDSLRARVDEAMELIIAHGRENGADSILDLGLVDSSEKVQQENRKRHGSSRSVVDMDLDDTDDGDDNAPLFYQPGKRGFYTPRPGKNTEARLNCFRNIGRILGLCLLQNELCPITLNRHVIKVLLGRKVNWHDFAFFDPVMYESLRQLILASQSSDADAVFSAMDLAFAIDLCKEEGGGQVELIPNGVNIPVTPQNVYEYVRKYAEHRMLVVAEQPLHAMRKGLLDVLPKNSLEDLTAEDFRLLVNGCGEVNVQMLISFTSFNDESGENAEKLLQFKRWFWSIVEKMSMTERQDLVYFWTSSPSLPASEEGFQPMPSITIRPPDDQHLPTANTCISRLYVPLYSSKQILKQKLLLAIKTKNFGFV

binding result: binds
B1: GST-tagged MOAP-1 recombinant protein (natural protein, UniProt Q96BY2 1-351, looked up)
chain: MTLRLLEDWCRGMDMNPRKALLIAGISQSCSVAEIEEALQAGLAPLGEYRLLGRMFRRDENRKVALVGLTAETSHALVPKEIPGKGGIWRVIFKPPDPDNTFLSRLNEFLAGEGMTVGELSRALGHENGSLDPEQGMIPEMWAPMLAQALEALQPALQCLKYKKLRVFSGRESPEPGEEEFGRWMFHTTQMIKAWQVPDVEKRRRLLESLRGPALDVIRVLKINNPLITVDECLQALEEVFGVTDNPRELQVKYLTTYQKDEEKLSAYVLRLEPLLQKLVQRGAIERDAVNQARLDQVIAGAVHKTIRRELNLPEDGPAPGFLQLLVLIKDYEAAEEEEALLQAILEGNFT
